Test [1] deals with T1, type I horse ferritin (horse, UniProt P02791 2-175; Q8MIP0 2-182, limits assumed).
T1 construct: the natural protein is a shell of light and heavy chains
Briefly: high-throughput ELISA screening, crude cell extract, ferritin or aldolase coated on plate, anti-T7-HRP detection; Fer-D24 is one of the clones taken on from these 14. The protocol: (§1) For the detection of binding, these cell extracts were tested for their reactivity on the prescribed target type I horse ferri tin as well as the unrelated control protein aldolase in ELISA experiments. Therefore, wells of black Fluotrac 600 ELISA plates (Greiner; 384 well) were coated overnight with 20 μl of a solution of ferritin (Sigma) or aldolase (Roche) at 4° C., each at a concentration of 20 μg/ml in PBS. Plates were washed five times with 100 μl PBST/0.05 per well with an automated ELISA plate washer (Molecular Devices) leaving a residual volume of 10 μl of the washing buffer in each well after the last washing step. Residual binding sites were blocked by incubation with 100 μl PBST/0.05 containing 2% w/v BSA for 2 h at room temperature. Afterwards, plates were again washed five times as described above.
(§2) For complex formation between the BBP muteins and the immobilized proteins, the wells were incubated with 10 μl of the blocked cell extract from above for 1 hour at room temperature. […] After 60 minutes at room temperature fluorescence was excited at a wavelength of 320 nm (±12.5 nm) and measured at 430 nm (±17.5 nm) in a GENiosPlus plate reader (Tecan).
In general terms: ELISA stands for enzyme-linked immunosorbent assay.

Test [2] deals with T1, type I horse ferritin. Put plainly: ELISA, ferritin coated on plate, mutein titrated from 1000 nM, anti-T7-HRP detection, apparent KD from curve fit. The protocol:
(§3) Afterwards, the wells were washed and blocked as described in Example 8.
(§4) Then, a dilution series of the BBP muteins from Example 11 in SA-buffer was prepared in PBST starting from 1000 nM concentration and incubated for 1 h at room temperature. Subsequently, plates were washed again five times, anti-T7 monoclonal antibody-HRP-conjugate was added and incubated for 1 hour at room temperature followed by washing and addition of fluorogenic HRP-substrate QuantaBlu™ as described in Example 8. After 10 minutes at room temperature fluorescence was excited at a wavelength of 320 nm (±12.5 nm) and measured at 430 nm (±17.5 nm) in a GENiosPlus plate reader.
The resulting binding curves were fitted by non-linear least squares regression as described in Example 8 and are depicted in FIG. 8. The values obtained for the apparent dissociation constants of the complexes between the BBP muteins and the prescribed target ferritin are summarized in Table 5.

The target of test [3] is T1, type I horse ferritin. Briefly: high-throughput ELISA screening, crude cell extract, ferritin or aldolase coated on plate, anti-T7-HRP detection; Fer-O20 is one of the clones taken on from these 14. The protocol: as §1, §2
Test [4] has as its target T2, RNaseB (UniProt P61823 27-150).
T2 construct: also called unrelated control protein RNaseB
T2 sequence (looked up): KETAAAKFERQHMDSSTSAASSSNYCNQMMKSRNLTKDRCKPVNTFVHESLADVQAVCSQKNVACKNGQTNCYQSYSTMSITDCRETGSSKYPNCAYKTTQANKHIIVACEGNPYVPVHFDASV
Put plainly: ELISA, RNaseB coated on plate, anti-T7-HRP detection. The protocol:
as §3, §4

The target in test [5] is T2, RNaseB. Briefly: ELISA: RNaseB coated on the plate as control, BBP mutein titrated 0-1000 nM, detected with anti-T7 antibody-HRP, fluorescence (Example 12). How it is done: as §3, §4
In test [6] the target is T1, type I horse ferritin. Put plainly: high-throughput ELISA screening, crude cell extract, ferritin or aldolase coated on plate, anti-T7-HRP detection; Fer-P4 is one of the clones taken on from these 14. How it is done: as §1, §2
Test [7] concerns the target T3, extracellular domain of human CD47 (amino acids 1 to 119 of the mature protein, Cys15 to Ala) with Strep-tag … (human, UniProt Q08722 19-139).
T3 construct: Produced in the periplasm of E. coli JM83, purified by the Strep-tag II; 1-119 counts on the mature CD47; also called recombinant CD47
Briefly: ELISA, CD47 coated on plate, mutein titrated from 2000 nM, anti-T7-HRP detection, apparent KD from curve fit. How it is done:
For the detection of binding in an ELISA the wells of a black Fluotrac 600 microtiter plate (Greiner; 384 well) were filled each with 20 μl of a solution of the intended recombinant protein target CD47 (produced as described in Example 2) or the unrelated control protein BSA both at a concentration of 50 μg/ml in PBS and were incubated for 1 h at ambient temperature. After washing five times with 100 μl PBST/0.05 per well employing an automated ELISA plate washer, the wells were filled with 100 μl PBST/0.05 3% w/v non-fat dry milk powder (Vitalia), in order to saturate unspecific binding sites and incubated for one hour at room temperature. After blocking, the microtiter plate was washed two times with 100 μl PBST/0.05 as described above.
Then a dilution series of the muteins in SA-buffer from Example 7 was prepared in PBST starting from 2000 nM concentration and incubated for 1 h at room temperature. Subsequently, plates were washed again five times like above and 20 μl of an anti-T7 monoclonal antibody-HRP-conjugate, diluted 1:1000 in PBST, was added to each well and incubated for 1 hour at room temperature. […] After 10 minutes at room temperature fluorescence was excited at a wavelength of 320 nm (±12.5 nm) and measured at 430 nm (±17.5 nm) in a GENiosPlus plate reader. […]

Test [8] has as its target T1, type I horse ferritin. Put plainly: high-throughput ELISA screening, crude cell extract, ferritin or aldolase coated on plate, anti-T7-HRP detection; Fer-N21 is one of the clones taken on from these 14. The protocol:
as §1, §2

For test [9], the target named is T1, type I horse ferritin. Put plainly: high-throughput ELISA screening, crude cell extract, ferritin or aldolase coated on plate, anti-T7-HRP detection; Fer-I21 is one of the clones taken on from these 14. How it is done: as §1, §2

T1 sequence (P02791 2-175 limits assumed, chain 1 of 2): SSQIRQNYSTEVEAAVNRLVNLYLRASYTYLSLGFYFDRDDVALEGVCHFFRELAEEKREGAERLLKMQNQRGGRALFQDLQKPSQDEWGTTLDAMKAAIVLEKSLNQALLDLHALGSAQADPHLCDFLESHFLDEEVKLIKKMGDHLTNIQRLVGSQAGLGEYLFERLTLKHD
T1 sequence (Q8MIP0 2-182 limits assumed, chain 2 of 2): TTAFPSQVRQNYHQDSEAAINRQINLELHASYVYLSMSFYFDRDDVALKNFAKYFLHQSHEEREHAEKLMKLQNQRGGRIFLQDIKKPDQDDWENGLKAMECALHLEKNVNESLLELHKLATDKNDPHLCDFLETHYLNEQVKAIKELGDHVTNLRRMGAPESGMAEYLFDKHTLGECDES
T3 sequence (Q08722 other isoform, or with tags, fused parts or gaps limits assumed): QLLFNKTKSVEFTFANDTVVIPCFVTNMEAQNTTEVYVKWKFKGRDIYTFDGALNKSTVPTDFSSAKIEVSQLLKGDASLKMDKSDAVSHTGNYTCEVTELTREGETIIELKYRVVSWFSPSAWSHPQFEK

B1: BBP mutein Fer-D24 (designed binder)
chain: DVYHDGACPEVKPVDNFDWSQYHGKWWEVAKYPSKKGKQGKCGWAEYTPEGKSVKVSRYDVIPCLESFMEGTAYPVGDSKIGKIYHSRTKPGRTKKTVFNVPSTDNKNYIIGYSCVYPEGRKGHRDHVWVLSRSMVLTGEAKTAVENYLIGSPVVDSQKLVYSDFSEAACKVNN
notes: Tested only in the screening ELISA (crude extract, pBBP47: C-terminal T7 tag and Strep-tag II); KD not given
As for B1, in the test with type I horse ferritin [1], the “signal-to-control ratio (ferritin against aldolase)” value (from here on “signal-to-control ratio”) is > 5.

B2: BBP mutein Fer-O20 (designed binder)
chain: DVYHDGACPEVKPVDNFDWSQYHGKWWEVAKCPSGKGRAGKCGWAEFTPEGKSVKVSRYDVIPAPELFMEGTAYPVGDPKIGKIYHSRTNKGLTKKTVFNVLSTDNKNYIIGYSCKYGEDQKGHKDHVWVLSRSMVLTGEAKTAVENYLIGSPVVDSQKLVYSDFSEAACKVNN
notes: Tested as expressed from pBBP47: C-terminal T7 tag followed by Strep-tag II
Turning to B2, the Kd in the test with type I horse ferritin [2] came to 49 nM. Besides, in the test with type I horse ferritin [3], the “signal-to-control ratio” value was > 5. Moreover, the binding result in the test with RNaseB [4] was “no binding (tested: dilution series starting from 1000 nM)”.

B3: BBP mutein Fer-P4 (designed binder)
chain: DVYHDGACPEVKPVDNFDWSQYHGKWWEVAKYPSKGGEKGKCGWAEYTPEGKSVKVSRYDVILSSEPFMEGTAYPVGDSKIGKIYHSRTKKGETKKTVFNVLSTDNKNYIIGYSCGYCECRKGHADHVWVLSRSMVLTGEAKTAVENYLIGSPVVDSQKLVYSDFSEAACKVNN
notes: as for B2
Turning to B3, the binding result with RNaseB [5] is “no binding (tested: 1000 nM)”. For the same molecule, the Kd with type I horse ferritin [2] turned out to be 31 nM. Moreover, the “signal-to-control ratio” value with type I horse ferritin [6] is > 5.

B4: BBP mutein CD47-G6 (designed binder)
chain: DVYHDGACPEVKPVDNFDWSQYHGKWWEVAKYPNRREKFGKCGWAEYTPEGKSVKVSNYHVIRWGERFIEGTAYPVGDSKIGKIYHSLTLPGYTKENVFNVLSTDNKNYIIGYYCKYLERLKGHADFVWVLSRSMVLTGEAKTAVENYLIGSPVVDSQKLVYSDFSEAACKVNN
With B4, in test [7], the Kd amounted to 33 nM.

B5: BBP mutein Fer-N21 (designed binder)
chain: DVYHDGACPEVKPVDNFDWSQYHGKWWEVAKYPSNRGSKGKCGWAEYTPEGKSVKVSRYDVIPRLEAFMEGTAYPVGDSKIGKIYHSRTSKGKTKKTVFNVLSTDNKNYIIGYSCIYNERYKGHYDHVWVLSRSMVLTGEAKTAVENYLIGSPVVDSQKLVYSDFSEAACKVNN
notes: as for B2
Take B5: the “signal-to-control ratio” value with type I horse ferritin [8] was > 5. In the test with type I horse ferritin [2], the Kd was found to be 29 nM. Further, the binding result with RNaseB [4] is on record as “no binding (tested: dilution series starting from 1000 nM)”.

B6: BBP mutein Fer-I21 (designed binder)
chain: DVYHDGACPEVKPVDNFDWSQYHGKWWEVAKYPNQKEKWGKCGWAEYTPEGKSVKVSNYHVIKRPERFIEGTAYPVGDSKIGKIYHSLTRLGKTKENVFNVLSTDNKNYIIGYYCLYPEGWKGHKDFVWVLSRSMVLTGEAKTAVENYLIGSPVVDSQKLVYSDFSEAACKVNN
notes: as for B2
Consider B6, for which the “signal-to-control ratio” value in the test with type I horse ferritin [9] is > 5. For the same molecule, the Kd with type I horse ferritin [2] was determined as 26 nM. Moreover, the binding result with RNaseB [4] is recorded as “no binding (tested: dilution series starting from 1000 nM)”.
